Results from paper PMC3526290.

System: H3/H4 (FM label on H4 C71) (Xenopus laevis)
Experiment: EMSA
Conditions: 0.2 uM H3/H4, 0.4 uM DNA, no chaperone, disome and tetrasome, EMSA deposition: 10 mM Tris, 150 mM NaCl, 0.5 mM TCEP, pH 8.0, on ice, 0.2x TBE native gel, FRET: 10 mM Tris pH 7.5, 150 mM KCl, 2 mM MgCl, 1% glycerol

## 80 bp 601 DNA
  binding signal: 44 % tetrasomes
